Target: T1, Human TROP2 Protein, His Tag (human, UniProt P09758 27-274)
T1 construct: Bought protein; also called TACSTD2; not shown: His tag
T1 sequence (looked up): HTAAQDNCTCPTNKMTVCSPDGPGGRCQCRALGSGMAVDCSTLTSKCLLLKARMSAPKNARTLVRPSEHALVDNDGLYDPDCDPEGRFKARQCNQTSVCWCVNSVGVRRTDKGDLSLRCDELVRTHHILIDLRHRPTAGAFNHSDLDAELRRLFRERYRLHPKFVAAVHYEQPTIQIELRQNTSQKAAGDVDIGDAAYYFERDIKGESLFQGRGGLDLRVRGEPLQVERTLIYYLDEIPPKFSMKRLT
Assay: BLI (Octet) [1/2]
Outline: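 Antibody variants from day-4 expression supernatants, diluted in 1×PBST pH 7.4 by expression level, captured on anti-human Fc tips. Association with 50 nM human TROP2-His in PBST pH 7.4 for 120 sec; dissociation in PBST pH 7.4 or pH 5.4 for 300 sec. Curves examined for koff at each pH versus parent antibody.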

Row | Binder | binding result
1 | MYT11678 (antibody, V domains shown, IgG from supernatant; His at LCV position 25; also called datopotamab variant L1 02) VH: QVQLVQSGAEVKKPGASVKVSCKASGYTFTTAGMQWVRQAPGQGLEWMGWINTHSGVPKYAEDFKGRVTISADTSTSTAYLQLSSLKSEDTAVYYCARSGFGSSYWYFDVWGQGTLVTVSS VL: DIQMTQSPSSLSASVGDRVTITCKHSQDVSTAVAWYQQKPGKAPKLLIYSASYRYTGVPSRFSGSGSGTDFTLTISSLQPEDFAVYYCQQHYITPLTFGQGTKLEIK | binds

Target: T2, Human TROP2 Protein, His Tag (Acro Biosystems) (human, UniProt P09758 27-274)
T2 construct: also called TACSTD2; not shown: His tag
T2 sequence (looked up): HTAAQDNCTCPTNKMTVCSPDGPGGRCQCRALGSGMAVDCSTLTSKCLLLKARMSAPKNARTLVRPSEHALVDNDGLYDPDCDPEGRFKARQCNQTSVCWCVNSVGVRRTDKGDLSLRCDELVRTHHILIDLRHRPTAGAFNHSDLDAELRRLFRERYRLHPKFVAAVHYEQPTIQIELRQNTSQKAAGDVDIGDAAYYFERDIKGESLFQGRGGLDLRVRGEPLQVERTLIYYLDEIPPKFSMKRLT
Assay: BLI (Octet) [2/2]

Row | Binder | binding result
2 | MYT13253 (antibody, V domains shown, Sacituzumab HC-LC pairing variant) VH: QVQLQQSGSELKKPGASVKVSCKASGYTFTNYGMNWVKQAPGQGLKWMGWINTYTGEPTYTDDHKGRFAFSLDTSVSTAYLQISSLKADDTAVYFCARGGFGSSYWYFDVWGQGSLVTVSS VL: DIQLTQSPSSLSASVGDRVSITCKASQDVSIAVAWYQQKPGKAPKLLIYSAHYRYTGVPDRFSGSGSGTDFTLTISSLQPEDFAVYYCQQHYHTPLTFGAGTKVEIK | binds
3 | MYT13254 (antibody, V domains shown, Sacituzumab HC-LC pairing variant) VH: QVQLQQSGSELKKPGASVKVSCKASGYTFTNYGMNWVKQAPGQGLKWMGWINTYTGEPTYTDDFHGRFAFSLDTSVSTAYLQISSLKADDTAVYFCARGGFGSSYWYFDVWGQGSLVTVSS VL: DIQLTQSPSSLSASVGDRVSITCKASQDVSIAVAWYQQKPGKAPKLLIYSAHYRYTGVPDRFSGSGSGTDFTLTISSLQPEDFAVYYCQQHYHTPLTFGAGTKVEIK | binds
4 | MYT13255 (antibody, V domains shown, Sacituzumab HC-LC pairing variant) VH: QVQLQQSGSELKKPGASVKVSCKASGYTFTNYGMNWVKQAPGQGLKWMGWINTYTGEPTYTDDFKHRFAFSLDTSVSTAYLQISSLKADDTAVYFCARGGFGSSYWYFDVWGQGSLVTVSS VL: DIQLTQSPSSLSASVGDRVSITCKASQDVSIAVAWYQQKPGKAPKLLIYSAHYRYTGVPDRFSGSGSGTDFTLTISSLQPEDFAVYYCQQHYHTPLTFGAGTKVEIK | binds

Target: T3, Human TROP2 Protein, His Tag (Acro Biosystems) (human, UniProt P09758 27-274)
T3 construct: Soluble analyte of the Octet assay; also called TACSTD2; not shown: His tag
T3 sequence (looked up): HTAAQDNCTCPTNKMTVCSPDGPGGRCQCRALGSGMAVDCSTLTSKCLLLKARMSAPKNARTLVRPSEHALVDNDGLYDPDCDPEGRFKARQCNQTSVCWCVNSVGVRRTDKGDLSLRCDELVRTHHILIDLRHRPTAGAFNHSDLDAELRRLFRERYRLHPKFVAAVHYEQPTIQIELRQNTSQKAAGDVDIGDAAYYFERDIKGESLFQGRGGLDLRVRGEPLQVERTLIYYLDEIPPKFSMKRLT
Assay: BLI (Octet), IgG on anti-human Fc sensor, soluble TROP2; grade 2 = No change vs parent
Procedure: After allowing for four days of protein expression, cell culture supernatants were collected, quantified by SDS-PAGE analysis (DNS), and the pH dependence of the variant was evaluated using biolayer interferometry (BLI) on an Octet RED 96e instrument. Briefly, cell culture supernatants were diluted based on qualitative expression level of the variant determined by visual examination of SDS-PAGE gels, 5 μL of cell culture supernatant was diluted into 195 μL of 1×PBST, pH 7.4 for high expressors, 25 μL of cell culture supernatant was diluted into 175 μL of 1×PBST, pH 7.4 for medium expressors and 100 μL of cell culture supernatant was diluted into 100 μL of 1×PBST, pH 7.4 for low expressors for loading onto the sensor tips. The resulting diluted supernatants were then captured on an anti-human Fc sensor (Forte Bio). A baseline was established using 1×PBST (50 mM Potassium Phosphate Buffer+150 mM NaCl+0.05% Tween 20) pH 7.4, and the sensor was associated with 50 nM of TROP2 (Human TROP2 Protein, His Tag, Acro Biosystems) in 1×PBST pH 7.4 for 120 sec to generate an association curve. In the dissociation phase, the antibody-antigen complex on the sensor was exposed to 1×PBST pH 7.4 or pH 5.4, for 300 sec. Association and dissociation phase curves were examined for the starting ABPC antibody (with no substitutions) and each corresponding antibody variant at pH 5.4 and pH 7.4 to inform on two criteria: a) enhanced dissociation (i.e., higher koff values) at pH 5.4 due to histidine or alanine substitution compared to the starting ABPC, (with no substitutions), and b) reduced dissociation at pH 7.4 (i.e., lower koff values) compared to pH 5.4 in the antibody variant itself and with the starting ABPC (with no substitutions). […] It was also noted that while some mutations obliterated TROP2 binding, others were tolerated with little or n change in TROP2 binding kinetics.

Row | Binder | binding result
5 | MYT13187 (antibody, V domains shown, Sacituzumab HC-LC pairing variant; IgG) VH: QVQLQQSGSELKKPGASVKVSCKASGYTFTNYGMNWVKQAPGQGLKWMGWINTYTGEPTYTHDFKGRFAFSLDTSVSTAYLQISSLKADDTAVYFCARGGFGSSYWYFDVWGQGSLVTVSS VL: DIQLTQSPSSLSASVGDRVSITCKASQDVSIAVAWYQQKPGKAPKLLIYSAHYRYTGVPDRFSGSGSGTDFTLTISSLQPEDFAVYYCQQHYITPLTFGAGTKVEIK | binds
6 | MYT13198 (antibody, V domains shown, Sacituzumab HC-LC pairing variant; IgG) VH: QVQLQQSGSELKKPGASVKVSCKASGYTFTNYGMNWVKQAPGQGLKWMGWINTYTGEPTYTDDFHGRFAFSLDTSVSTAYLQISSLKADDTAVYFCARGGFGSSYWYFDVWGQGSLVTVSS VL: DIQLTQSPSSLSASVGDRVSITCKASQDVSIAVAWYQQKPGKAPKLLIYSASHRYTGVPDRFSGSGSGTDFTLTISSLQPEDFAVYYCQQHYITPLTFGAGTKVEIK | binds
7 | MYT13199 (antibody, V domains shown, Sacituzumab HC-LC pairing variant; IgG) VH: QVQLQQSGSELKKPGASVKVSCKASGYTFTNYGMNWVKQAPGQGLKWMGWINTYTGEPTYTDDFKHRFAFSLDTSVSTAYLQISSLKADDTAVYFCARGGFGSSYWYFDVWGQGSLVTVSS VL: DIQLTQSPSSLSASVGDRVSITCKASQDVSIAVAWYQQKPGKAPKLLIYSASHRYTGVPDRFSGSGSGTDFTLTISSLQPEDFAVYYCQQHYITPLTFGAGTKVEIK | binds
8 | MYT13203 (antibody, V domains shown, Sacituzumab HC-LC pairing variant; IgG) VH: QVQLQQSGSELKKPGASVKVSCKASGYTFTNYGMNWVKQAPGQGLKWMGWINTYTGEPTYTHDFKGRFAFSLDTSVSTAYLQISSLKADDTAVYFCARGGFGSSYWYFDVWGQGSLVTVSS VL: DIQLTQSPSSLSASVGDRVSITCKASQDVSIAVAWYQQKPGKAPKLLIYSASYRYTGVPDRFSGSGSGTDFTLTISSLQPEDFAVYYCHQHYITPLTFGAGTKVEIK | binds
